Where a chain is given by its changes, count along the chain named.
What was measured:
[1] = system: CBCVA, THCVA, and CBDVA production; experiment: In vivo TS activity assay, Example 2 protein engineering of A. niger CBCAS, cultures fed divaric acid; assay type: cell-based, S. cerevisiae; conditions: fed divaric acid; for Mean CBCVA / Mean CBDVA / Mean THCVA: S. cerevisiae strains expressing A. niger CBCAS mutants, secondary screen; for % CBCVA / % CBDVA / % THCVA: share of terminal cannabinoid product profile
Outline: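 S. cerevisiae expressing A. niger CBCAS point mutants (N-terminal MFalpha2, C-terminal HDEL signal peptides) grown 2 days at 30 °C in YEP+4% dextrose, then 4 days at 20 °C in YEP+4% galactose with 1 mM divaric acid plus daily 2% galactose and 1 mM divaric acid spikes, then 2 days with 100 mM sodium citrate pH 5.5. Methanol extracts analysed by LC-MS; quadruplicate.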

[2] = system: CBCA, THCA, and CBDA production; experiment: In vivo TS activity assay, Example 2 protein engineering of A. niger CBCAS, cultures fed olivetolic acid; assay type: cell-based, S. cerevisiae; conditions: for Mean CBCA / Mean CBDA / Mean THCA: secondary screen, olivetolic acid (Table 8); for % CBCA / % CBDA / % THCA: share of terminal cannabinoid product profile
Outline: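 S. cerevisiae expressing A. niger CBCAS mutants (MFalpha2/HDEL-tagged) grown 2 days at 30 °C in YEP+4% dextrose, then 4 days at 20 °C in YEP+4% galactose with 1 mM olivetolic acid, spiked every 24 h with 2% galactose and 1 mM olivetolic acid. 100 mM citrate pH 5.5 added, methanol-extracted; CBCA, THCA, CBDA quantified by LC-MS.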

B1: t865758 (protein)
chain: MGNTTSIAGRDCLISALGGNSALAVFPNELLWTADVHEYNLNLPVTPAAITYPETAAQIAGVVKCASDYDYKVQARSGGHSFGNYGLGGADGAVVVDMKHFTQFSMDDETYEAVIGPGTTLNDVDIELYNNGKRAMAHGVCPTIKTGGHFTIGGLGPTARQWGLALDHVEEVEVVLANSSIVRASNTQNQDVFFAVKGAAANFGIVTEFKVRTEPAPGLAVQYSYTFNLGSTAEKAQFVKDWQSFISAKNLTRQFYNNMVIFDGDIILEGLFFGSKEQYDALGLEDHFAPKNPGNILVLTDWLGMVGHALEDTILKLVGNTPTWFYAKSLGFRQDTLIPSAGIDEFFEYIANHTAGTPAWFVTLSLEGGAINDVAEDATAYAHRDVLFWVQLFMVNPVGPISDTTYEFTDGLYDVLARAVPESVGHAYLGCPDPRMEDAQQKYWRTNLPRLQELKAELDPKNTFHHPQGVMPA
modifications: expressed in S. cerevisiae strain
- Mean CBCVA [1]: 3465.87 µg/L
- Mean CBDVA [1]: 0.00 µg/L
- Mean THCVA [1]: 1548.62 µg/L
- % CBCVA [1]: 69.12%
- % CBDVA [1]: 0.00%
- % THCVA [1]: 30.88%
- Mean CBCA [2]: 26316.76 µg/L
- Mean CBDA [2]: 6998.62 µg/L
- Mean THCA [2]: 1712.53 µg/L
- % CBCA [2]: 75.13%
- % CBDA [2]: 19.98%
- % THCA [2]: 4.89%

B2: t865809 (protein)
chain: B1 chain with N122G, A456E
modifications: expressed in S. cerevisiae strain
- Mean CBCVA [1]: 3093.25 µg/L
- Mean CBDVA [1]: 0.00 µg/L
- Mean THCVA [1]: 1662.32 µg/L
- % CBCVA [1]: 65.04%
- % CBDVA [1]: 0.00%
- % THCVA [1]: 34.96%
- Mean CBCA [2]: 20413.40 µg/L
- Mean CBDA [2]: 6738.75 µg/L
- Mean THCA [2]: 1390.36 µg/L
- % CBCA [2]: 71.52%
- % CBDA [2]: 23.61%
- % THCA [2]: 4.87%

B3: t865795 (protein)
chain: B1 chain with F262I, A456E
modifications: expressed in S. cerevisiae strain
- Mean CBCVA [1]: 1897.16 µg/L
- Mean CBDVA [1]: 0.00 µg/L
- Mean THCVA [1]: 1181.24 µg/L
- % CBCVA [1]: 61.63%
- % CBDVA [1]: 0.00%
- % THCVA [1]: 38.37%
- Mean CBCA [2]: 24874.10 µg/L
- Mean CBDA [2]: 7028.82 µg/L
- Mean THCA [2]: 1807.99 µg/L
- % CBCA [2]: 73.79%
- % CBDA [2]: 20.85%
- % THCA [2]: 5.36%

B4: t865721 (protein)
chain: B1 chain with Y256F, A456E
- Mean CBCVA [1]: 3281.34 µg/L
- Mean CBDVA [1]: 0.00 µg/L
- Mean THCVA [1]: 1482.54 µg/L
- % CBCVA [1]: 68.88%
- % CBDVA [1]: 0.00%
- % THCVA [1]: 31.12%
- Mean CBCA [2]: 21099.41 µg/L
- Mean CBDA [2]: 5260.35 µg/L
- Mean THCA [2]: 1396.80 µg/L
- % CBCA [2]: 76.02%
- % CBDA [2]: 18.95%
- % THCA [2]: 5.03%

B5: t878466 (protein)
chain: B1 chain with Q161K, A456E
modifications: expressed in S. cerevisiae strain
- Mean CBCVA [1]: 2985.03 µg/L
- Mean CBDVA [1]: 0.00 µg/L
- Mean THCVA [1]: 1623.40 µg/L
- % CBCVA [1]: 64.77%
- % CBDVA [1]: 0.00%
- % THCVA [1]: 35.23%
- Mean CBCA [2]: 23882.09 µg/L
- Mean CBDA [2]: 8030.74 µg/L
- Mean THCA [2]: 1649.00 µg/L
- % CBCA [2]: 71.16%
- % CBDA [2]: 23.93%
- % THCA [2]: 4.91%

— patent publication US20230137139A1, “BIOSYNTHESIS OF CANNABINOIDS AND C[…]” (priority 2020, published 2023)
